Data as given in publication PMC4978539.

Tests used:
Test in all cases: proximity ligation
[1] = target: HIV-1 Gag with the CA mutation G89A, expressed from a proviral point mutant (HIV-1)
[2] = target: HIV-1 Gag with the CA mutations Q7A/Q9A, expressed from a proviral point mutant (HIV-1)
[3] = target: HIV-1 Gag, wild type, expressed from the proviral clone pNL4-3 (HIV-1)
mCh-GagQ7A/Q9A (HIV-1) = target: mCh-GagQ7A/Q9A (HIV-1)
mCherry-Gag (HIV-1) = target: mCherry-Gag (HIV-1)

Sequence of Cyclophilin A (P62937 whole entry): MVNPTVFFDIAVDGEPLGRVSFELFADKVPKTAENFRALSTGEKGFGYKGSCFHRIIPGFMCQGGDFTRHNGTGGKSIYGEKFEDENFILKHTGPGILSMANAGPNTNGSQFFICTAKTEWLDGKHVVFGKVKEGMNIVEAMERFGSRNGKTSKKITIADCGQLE
Sequence of Ras-GAP SH3 domain-binding protein (G3BP1), endogenous (Q13283 whole entry, the tested form may be a part): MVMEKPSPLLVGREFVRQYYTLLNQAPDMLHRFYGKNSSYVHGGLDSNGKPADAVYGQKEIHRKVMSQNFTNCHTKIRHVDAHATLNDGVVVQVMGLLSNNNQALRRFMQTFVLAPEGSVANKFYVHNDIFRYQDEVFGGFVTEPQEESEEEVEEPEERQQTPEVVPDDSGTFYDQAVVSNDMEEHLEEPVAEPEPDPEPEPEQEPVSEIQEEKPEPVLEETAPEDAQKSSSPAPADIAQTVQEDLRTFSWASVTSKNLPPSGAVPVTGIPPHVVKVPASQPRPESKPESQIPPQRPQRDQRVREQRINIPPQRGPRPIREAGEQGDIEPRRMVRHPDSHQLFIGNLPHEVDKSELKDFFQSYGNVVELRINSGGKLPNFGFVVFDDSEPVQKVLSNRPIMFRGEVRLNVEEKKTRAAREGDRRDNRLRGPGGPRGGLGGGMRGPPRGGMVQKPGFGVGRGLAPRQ

Work on “Cyclophilin A (from UniProt P62937 1-165) (natural protein)” yielded a PLA spots/cell [1] of 18.7 spots/cell, a PLA spots/cell [2] of 27.4 spots/cell and a PLA spots/cell [3] of 60.3 spots/cell.

Substance “Ras-GAP SH3 domain-binding protein (G3BP1), endogenous (from UniProt Q13283 1-466) (natural protein)” has a PLA spots/cell (mCh-GagQ7A/Q9A (HIV-1)) of 33.8 spots/cell and a PLA spots/cell (mCherry-Gag (HIV-1)) of 107 spots/cell.

With “eukaryotic elongation factor 2, endogenous (from UniProt P13639 1-858) (natural protein)” the PLA spots/cell [1] was 3.44 spots/cell, the PLA spots/cell [2] was 5.1 spots/cell and the PLA spots/cell [3] was 11.6 spots/cell.
